Assay results from patent US9782454B2 (LONGEVITY BIOTECH, INC., priority 2010, dated 2017).
One block for each molecule: values may come before it. Non-standard residues stand in square brackets, D forms with d. No end group written: not given here. ACPC = cyclic beta amino acid; APC = cyclic beta amino acid

Legend:
[1] = target: T1, human calcitonin receptor (Homo sapiens, UniProt P30988); conditions: read-out: EC50, agonist for the human calcitonin receptor; cited from earlier work
T1 sequence (P30988 25-474): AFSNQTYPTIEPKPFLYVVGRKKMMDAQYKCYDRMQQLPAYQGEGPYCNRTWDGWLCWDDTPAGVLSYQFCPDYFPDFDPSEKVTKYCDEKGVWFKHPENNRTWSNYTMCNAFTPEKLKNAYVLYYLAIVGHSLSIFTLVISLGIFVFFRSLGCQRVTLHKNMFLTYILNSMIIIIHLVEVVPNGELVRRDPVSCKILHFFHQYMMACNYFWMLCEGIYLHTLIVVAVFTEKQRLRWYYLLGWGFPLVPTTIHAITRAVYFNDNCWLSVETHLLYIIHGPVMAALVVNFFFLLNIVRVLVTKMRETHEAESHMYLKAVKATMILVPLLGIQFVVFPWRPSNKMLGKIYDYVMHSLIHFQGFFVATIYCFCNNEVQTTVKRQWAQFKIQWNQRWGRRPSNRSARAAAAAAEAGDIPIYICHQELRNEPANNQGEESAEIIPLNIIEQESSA

[2] = target: VIPR2 (VPAC2) receptor, cAMP Hunter cell line expressing VIPR2 (UniProt P41587); assay: cell-based or functional assay
[3] = target: T2, Glucagon receptor (Rattus norvegicus, UniProt P30082); conditions: cited from earlier work
T2 construct: Enhances glucose-stimulated; from tissue; host or cells: rat liver membranes (value quoted from the literature)

[4] = target: T3, VIPR1 (VPAC1) receptor, cAMP Hunter cell line expressing VIPR1 (UniProt P32241 31-457, limits assumed); assay: cell-based or functional assay
T3 sequence (looked up): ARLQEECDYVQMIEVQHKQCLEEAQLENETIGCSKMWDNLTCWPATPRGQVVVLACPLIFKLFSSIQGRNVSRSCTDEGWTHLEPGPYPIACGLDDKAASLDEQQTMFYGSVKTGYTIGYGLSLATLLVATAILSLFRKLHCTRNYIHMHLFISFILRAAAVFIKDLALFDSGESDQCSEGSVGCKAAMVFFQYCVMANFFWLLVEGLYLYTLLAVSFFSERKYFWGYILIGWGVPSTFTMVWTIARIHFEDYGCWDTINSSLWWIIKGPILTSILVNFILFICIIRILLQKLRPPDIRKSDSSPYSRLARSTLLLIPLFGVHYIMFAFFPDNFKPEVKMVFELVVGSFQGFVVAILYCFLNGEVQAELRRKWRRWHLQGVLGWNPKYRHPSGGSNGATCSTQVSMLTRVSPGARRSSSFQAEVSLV

Chain of VIPR2 (VPAC2) receptor, cAMP Hunter cell line expressing VIPR2 (P41587 24-438 limits assumed): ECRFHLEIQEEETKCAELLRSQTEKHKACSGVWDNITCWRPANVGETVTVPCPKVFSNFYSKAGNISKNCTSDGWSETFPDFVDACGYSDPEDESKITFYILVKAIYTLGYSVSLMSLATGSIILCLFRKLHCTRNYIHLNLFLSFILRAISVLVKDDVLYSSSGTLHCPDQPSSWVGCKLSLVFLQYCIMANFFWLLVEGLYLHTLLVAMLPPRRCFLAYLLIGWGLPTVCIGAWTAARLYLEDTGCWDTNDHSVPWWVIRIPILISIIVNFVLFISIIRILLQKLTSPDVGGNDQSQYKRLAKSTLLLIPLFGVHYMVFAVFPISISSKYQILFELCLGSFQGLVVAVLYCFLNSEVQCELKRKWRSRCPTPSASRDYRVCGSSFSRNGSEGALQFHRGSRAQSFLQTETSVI
T2 sequence (P30082 27-485): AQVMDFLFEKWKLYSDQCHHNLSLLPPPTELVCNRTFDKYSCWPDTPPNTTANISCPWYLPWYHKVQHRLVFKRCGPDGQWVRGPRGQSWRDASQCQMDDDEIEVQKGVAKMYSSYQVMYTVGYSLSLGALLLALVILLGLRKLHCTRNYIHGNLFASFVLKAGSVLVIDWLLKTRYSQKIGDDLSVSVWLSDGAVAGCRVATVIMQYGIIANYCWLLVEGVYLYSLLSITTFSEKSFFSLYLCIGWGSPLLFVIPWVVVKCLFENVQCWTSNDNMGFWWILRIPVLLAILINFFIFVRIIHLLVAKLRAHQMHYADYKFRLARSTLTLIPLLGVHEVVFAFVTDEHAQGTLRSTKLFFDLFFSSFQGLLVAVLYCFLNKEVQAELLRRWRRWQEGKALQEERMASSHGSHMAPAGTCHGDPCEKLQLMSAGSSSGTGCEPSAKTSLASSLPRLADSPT

Molecule: PHM 27 (human) (HADGVFTSDFSKLLGQLSAKKYLESLM-NH2; UniProt P01282 81-107, looked up)
- EC50 [1]: 11 nM

- % Activity, cAMP agonist mode, at 1.00E-07 M (block headed Compound ID 9) [2]: 0.4%
- % Activity, cAMP agonist mode, at 1.00E-08 M (block headed Compound ID 9) [2]: 1.2%
- % Activity, cAMP agonist mode, at 1.00E-09 M (block headed Compound ID 9) [2]: 0.4%
- % Activity, cAMP agonist mode, at 1.00E-10 M (block headed Compound ID 9) [2]: -1.1%
- % Activity, cAMP agonist mode, at 1.00E-11 M (block headed Compound ID 9) [2]: 0.9%
- % Activity, cAMP agonist mode, at 1.00E-12 M (block headed Compound ID 9) [2]: 0.4%
- % Activity, cAMP agonist mode, at 5.00E-07 M (block headed Compound ID 9) [2]: 1.9%
- % Activity, cAMP agonist mode, at 5.00E-08 M (block headed Compound ID 9) [2]: 0.9%
- % Activity, cAMP agonist mode, at 5.00E-09 M (block headed Compound ID 9) [2]: 0.1%
- % Activity, cAMP agonist mode, at 5.00E-10 M (block headed Compound ID 9) [2]: 1.5%
- % Inhibition, cAMP antagonist mode against EC80 VIP, at 1.00E-07 M [2]: 6.5%
- % Inhibition, cAMP antagonist mode against EC80 VIP, at 1.00E-08 M [2]: 9.4%
- % Inhibition, cAMP antagonist mode against EC80 VIP, at 1.00E-09 M [2]: 6.5%
- % Inhibition, cAMP antagonist mode against EC80 VIP, at 1.00E-10 M [2]: 4.2%
- % Inhibition, cAMP antagonist mode against EC80 VIP, at 1.00E-11 M [2]: 8.7%
- % Inhibition, cAMP antagonist mode against EC80 VIP, at 1.00E-12 M [2]: 3.7%
- % Inhibition, cAMP antagonist mode against EC80 VIP, at 5.00E-07 M [2]: 8.4%
- % Inhibition, cAMP antagonist mode against EC80 VIP, at 5.00E-08 M [2]: 6.2%
- % Inhibition, cAMP antagonist mode against EC80 VIP, at 5.00E-09 M [2]: 10.9%
- % Inhibition, cAMP antagonist mode against EC80 VIP, at 5.00E-10 M [2]: 12.7%
- Mean RLU, cAMP agonist mode, at 1.00E-07 M (block headed Compound ID 9) [2]: 8920 RLU
- Mean RLU, cAMP agonist mode, at 1.00E-08 M (block headed Compound ID 9) [2]: 9560 RLU
- Mean RLU, cAMP agonist mode, at 1.00E-09 M (block headed Compound ID 9) [2]: 8560 RLU
- Mean RLU, cAMP agonist mode, at 1.00E-10 M (block headed Compound ID 9) [2]: 7560 RLU
- Mean RLU, cAMP agonist mode, at 1.00E-11 M (block headed Compound ID 9) [2]: 3280 RLU
- Mean RLU, cAMP agonist mode, at 1.00E-12 M (block headed Compound ID 9) [2]: 9300 RLU
- Mean RLU, cAMP agonist mode, at 5.00E-07 M (block headed Compound ID 9) [2]: 10200 RLU
- Mean RLU, cAMP agonist mode, at 5.00E-08 M (block headed Compound ID 9) [2]: 9200 RLU
- Mean RLU, cAMP agonist mode, at 5.00E-09 M (block headed Compound ID 9) [2]: 8560 RLU
- Mean RLU, cAMP agonist mode, at 5.00E-10 M (block headed Compound ID 9) [2]: 3920 RLU
- Mean RLU, cAMP antagonist mode against EC80 VIP, at 1.00E-07 M [2]: 79600 RLU
- Mean RLU, cAMP antagonist mode against EC80 VIP, at 1.00E-08 M [2]: 77500 RLU
- Mean RLU, cAMP antagonist mode against EC80 VIP, at 1.00E-09 M [2]: 79500 RLU
- Mean RLU, cAMP antagonist mode against EC80 VIP, at 1.00E-10 M [2]: 81300 RLU
- Mean RLU, cAMP antagonist mode against EC80 VIP, at 1.00E-11 M [2]: 78000 RLU
- Mean RLU, cAMP antagonist mode against EC80 VIP, at 1.00E-12 M [2]: 81700 RLU
- Mean RLU, cAMP antagonist mode against EC80 VIP, at 5.00E-07 M [2]: 64200 RLU
- Mean RLU, cAMP antagonist mode against EC80 VIP, at 5.00E-08 M [2]: 79500 RLU
- Mean RLU, cAMP antagonist mode against EC80 VIP, at 5.00E-09 M [2]: 76300 RLU
- Mean RLU, cAMP antagonist mode against EC80 VIP, at 5.00E-10 M [2]: 74900 RLU
Molecule: VIP analogue Compound 8 (…XRLZKQLXVKZYLNXILN) (peptide)

Molecule: des-His1-{Glu9}-Glucagon (1-29) amide
- agonist activity at the glucagon receptor [3]: activation in rat liver membranes); displays no agonist activity. Enhances glucose-stimulated
- pA2 for inhibition of glucagon-induced adenylyl cyclase activation in rat liver membranes [3]: (Glucagon receptor antagonist (pA2 = 7.2 for inhibition of glucagon-induced adenylyl cyclase

- EC50, cAMP agonist mode [4]: 28 nM
Molecule: HSDAVFTDNY[ACPC]RL[APC]KQL[ACPC]VK[APC]YLN[ACPC]ILN (ends and bridges not checked) [VIP analogue Compound 8 (HSDAVFTDNYXRLZKQLXVKZYLNXILN)]
